In PMC7081908, “Glycan Profiles of gp120 Protein Vaccines from Four Major HIV-1 Subtypes Produced from Different Host Cell Lines under Non-GMP or GMP Conditions” (Journal of Virology, 2020):
Values joined by “and” are separate entries in the source; they are usually repeats but may differ in a detail not shown here. Equal values may be shown once.

Molecular target: IgG-CD4 protein (fusion protein of human CD4 domains 1 and 2 with human IgG1 Fc at the C terminus) (human)
Test: BLI; Octet QKe; IgG-CD4 loaded onto protein G sensors at 20 ug/ml in ForteBio kinetics buffer; serial dilutions of gp120 (600 nM to 0.4 nM) in solution; Kd = koff/kon, 1:1 fitting model; two GMP lots of each gp120
Settings: both partners purified

B1: GMP-grade gp120 protein, HIV-1 clade A isolate 92UG037.8 (natural protein)
chain: not shown
- Kd: 5.48 nM and 3.62 nM
